From patent US9090882B2, “Compositions and methods for enhanced amino acid levels in plants conferred by lysine and/or threonine feedback insensitive aspartate kinase proteins” (priority 2008, dated 2015)
Where a chain is given by its changes, count along the chain named. Names and notes keep the numbering of the source. Read-outs that look alike come from different tables or passages of the source.

B1: E. coli T352I lysC gene product: E. coli feedback-insensitive (T352I) lysC aspartate kinase, control (protein, listed as Escherichia coli)
chain: MSEIVVSKFGGTSVADFDAMNRSADIVLSDANVRLVVLSASAGITNLLVALAEGLEPGERFEKLDAIRNIQFAILERLRYPNVIREEIERLLENITVLAEAAALATSPALTDELVSHGELMSTLLFVEILRERDVQAQWFDVRKVMRTNDRFGRAEPDVAALAELAALQLLPRLNDGLVITQGFIGSENKGRTTTLGRGGSDYTAALLAEALHASRVDIWTDVPGIYTTDPRVVSAAKRIDEIAFAEAAEMATFGAKVLHPATLLPAVRSDIPVFVGSSKDPRAGGTLVCNKTENPPLFRALALRRNQTLLTLHSLNMLHSRGFLAEVFGILARHNISVDLITTSEVSVALTLDTTGSTSTGDTLLTQSLLMELSALCRVEVEEGLALVALIGNDLSKACGVGKEVFGVLEPFNIRMICYGASSHNLCFLVPGEDAEQVVQKLHFNLFE
B2: X. bovienii AK T359I: Xenorhabdus bovienii aspartate kinase variant, Thr 359 replaced with Ile (protein, listed as Xenorhabdus bovienii)
chain: MCAVSSTYPQYVVAKFGGTSVADFDAMNHCADIILANADVRVVVLSASAGVTNLLVALATGCDNDKRKKCLKQIRDIQYAIIDRLNDVNVICEEIDRLLENIEMLSEAASLATSEALTDELVSHGEVMSTLLFVELLRQRNVNAEWFDIRRVMRTNDHFGRAEPDSLQLHISAVELLQPRLNNTVVITQGFIGREEKGRTTTLGRGGSDYTAALLGEALNLQRVDIWTDVPGIYTTDPRVAPTAKRIDKIAFDEAAEMATFGAKILHPATLLPAIRCGIPVFVGSSKDPQAGGTLVCDKTENPPLFRALALRRKQTLLTLHSLKMLHARGFLAEVFTLLLRHNISVDLITTSEVSVALILDTTGSTSTNGSLLTNALLTELSTLCRVEVEEDLALVAIIGNELSQAKGLGKEIFGTLESFNIRMISYGASSHNVCLLVPGQDAESVIQKLHQNLFKV
B3: X. bovienii AK E257K: Xenorhabdus bovienii aspartate kinase variant, Glu 257 replaced with Lys (protein, listed as Xenorhabdus bovienii)
chain: B2 chain with E257K, I359T
B4: X. bovienii AK Wild Type: purified recombinant His-tagged wild-type Xenorhabdus bovienii aspartate kinase (encoded by SEQ ID NO: 6) (protein, listed as Xenorhabdus bovienii)
chain: B2 chain with I359T
modifications: His tag
B5: X. bovienii AK E257K/T359I: Xenorhabdus bovienii aspartate kinase double variant E257K/T359I (protein, listed as Xenorhabdus bovienii)
chain: B2 chain with E257K
B6: E. coli lysC gene product: recombinant E. coli lysC aspartate kinase, control sensitive to feedback inhibition by Lys (protein, UniProt P08660 2-449, looked up)
Lysine-sensitive …: SEIVVSKFGGTSVADFDAMNRSADIVLSDANVRLVVLSASAGITNLLVALAEGLEPGERFEKLDAIRNIQFAILERLRYPNVIREEIERLLENITVLAEAAALATSPALTDELVSHGELMSTLLFVEILRERDVQAQWFDVRKVMRTNDRFGRAEPDIAALAELAALQLLPRLNEGLVITQGFIGSENKGRTTTLGRGGSDYTAALLAEALHASRVDIWTDVPGIYTTDPRVVSAAKRIDEIAFAEAAEMATFGAKVLHPATLLPAVRSDIPVFVGSSKDPRAGGTLVCNKTENPPLFRALALRRNQTLLTLHSLNMLHSRGFLAEVFGILARHNISVDLITTSEVSVALTLDTTGSTSTGDTLLTQSLLMELSALCRVEVEEGLALVALIGNDLSKACGVGKEVFGVLEPFNIRMICYGASSHNLCFLVPGEDAEQVVQKLHSNLFE

Tests used:
[1] = system: E. coli lysC aspartate kinase; details: known from the literature; cited from earlier work
[2] = system: plants; details: expression in plants; Karchi et al. 1993, Galili et al. EP 0485970; cited from earlier work
[3] = system: X. bovienii aspartate kinase; experiment: Aspartate kinase enzyme assays and kinetic studies (colorimetric hydroxamate / coupled assay) with purified recombinant His-tagged AK; format: biochemical, Xenorhabdus bovienii; details: for Vmax Asp / Km: purified enzyme
Procedure: The chimeric plasmids containing AK or the desired mutants were transformed into E. coli BL21 (DE3) cells and transformants were selected on LB (Luria-Bertani) medium containing kanamycin (50 μg/mL). For induction of gene expression, transformants selected from single colonies were grown in 100 mL liquid LB supplemented with ampicillin or kanamycin to approximately 0.6 A600, and 0.4 mM. Isopropyl-β-thiogalactopyranoside (IPTG) (Gold Biotechnologies, St. Louis, Mo.) was added, followed by 15 hours incubation at 21° C. and 220 rpm shaking. Cells were harvested by 30 min centrifugation at 7,000×g and washed once with 20 mM Tris-HCl, 150 mM NaCl, pH 7.4. Washed cell pellets were re-suspended in 50 mM K-phosphate buffer (pH7.4, Buffer A) containing 2 mM MgCl2, 50 mM NaCl, 100 units of benzonase (Novagen, San Diego, Calif.) and protease inhibitor cocktail tablets without EDTA (1 tablet/10 mL) (Boehringer Mannheim, Germany). Cells were broken by three passages through a chilled French press cell (SLM-Aminco Spectronic Instruments), operating at 20,000 psi. The lysate was centrifuged by an ultra-centrifuge for 1 hour at 100,000×g, at 4° C. The resulting supernatant was applied to nickel+-nitrilotriacetic acid (Ni+NTA) agarose column (His-Bind resin, Qiagen) and chromatographed according to the supplier's instructions. The column was washed with 3 bed volumes of Buffer A containing 20 mM imidiazole followed by elution with 300 mM imidazole. Enzymatically active fractions of the N-terminal His-tagged […] were pooled, dialyzed against Buffer A without benzonase, and stored in 15% glycerol solution at −80° C. for use in kinetic studies. The enzyme preparation was over 95% pure as judged by Coomassie Blue-stained SDS-PAGE.
Colorimetric Hydroxamate Method. The assay mixture (final volume, 0.8 mL) contained 100 Tris-HCl, pH8.0, 40 mM hydroxylamine-KOH, pH8.0, 25 mM ATP-KOH, pH8.0, 20 mM MgCl2, L-aspartic acid, and 150 mM KCl. The reaction was initiated by addition of AK enzyme, and carried out at 37° C. for 15-30 min. The reaction was terminated by addition of 400 μL acidified ferric chloride (0.37 M FeCl3, 20% TCA, and 0.72 M HCl) and followed by the centrifugation at top speed of microcentrifuge. The formed aspartyl-hydroxamate was determined by colorimetrically at 505 nm. The biosynthetic activity was calculated based on the standard curves of L-aspartyl-hydroxamate or ε505nm.
The assay couples the conversion of ATP to ADP to the oxidation of NADH using pyruvate kinase and lactate dehydrogenase at 30° C. NADH oxidation was monitored kinetically at 340 nm. (See Wampler D E, Westhead E W. (1968), BIOCHEMISTRY 7: 1661-1670.)
Kinetic parameters were determined by measuring product formation in 100 μL reaction mixtures containing various substrate concentrations ranging from 0 to 25 mM. Controls were included for every assay. Values for Km, Vmax, and Kcat were calculated from the rate of the product formation using Michaelis-Menten equations in conjunction with the curve fitting options in the Grafit 5.0 software (Erithacus software Ltd., Horley, UK) (Table 2).

[4] = substrate ATP, read-out: Km ATP
[5] = substrate Asp, read-out: Km Asp

| Molecule | feedback inhibition by Lys [1] | increase in threonine content of the seed [2] | Vmax Asp [3] [μmoles · min^−1 · mg^−] | Km [3, 4] [µM] | Km [3, 5] [µM] | IC50 ([3]; inhibition of the purified enzyme by lysine) [µM] |
| --- | --- | --- | --- | --- | --- | --- |
| B1 | lysine-insensitive | 6-7% |  |  |  |  |
| B2 |  |  | 0.26 | 1820 | 2310 |  |
| B3 |  |  | 0.20 | 1890 | 3060 |  |
| B4 |  |  | 0.29 | 2560 | 2730 | 140 |
| B5 |  |  | 0.24 | 1620 | 3100 |  |
| B6 | sensitive to feedback inhibition by Lys |  |  |  |  |  |
